# Results as given in patent US20170137467A1 (CHROMOTEK, published 2017).
# Residue numbers refer to the chain shown, from its start.
# T1: BC2T R3P
# T1 construct: positional scanning library member
# T1 peptide: Ac-PDPKAAVSHWQQ-NH2
# T2: BC2T R3N
# T2 construct: positional scanning library member
# T2 peptide: Ac-PDNKAAVSHWQQ-NH2
# T3: BC2T A5N
# T3 construct: positional scanning library member
# T3 peptide: Ac-PDRKNAVSHWQQ-NH2
# T4: BC2T D2K
# T4 construct: positional scanning library member
# T4 peptide: Ac-PKRKAAVSHWQQ-NH2
# T5: BC2T A5Q
# T5 construct: positional scanning library member
# T5 peptide: Ac-PDRKQAVSHWQQ-NH2
# T6: BC2T D2F
# T6 construct: positional scanning library member
# T6 peptide: Ac-PFRKAAVSHWQQ-NH2
# T7: BC2T A6F
# T7 construct: positional scanning library member
# T7 peptide: Ac-PDRKAFVSHWQQ-NH2
# T8: BC2T P1H
# T8 construct: positional scanning library member
# T8 peptide: Ac-HDRKAAVSHWQQ-NH2
# T9: BC2T K4Y
# T9 construct: positional scanning library member
# T9 peptide: Ac-PDRYAAVSHWQQ-NH2
# T10: BC2T V7Q
# T10 construct: positional scanning library member
# T10 peptide: Ac-PDRKAAQSHWQQ-NH2
# T11: BC2T A6Y
# T11 construct: positional scanning library member
# T11 peptide: Ac-PDRKAYVSHWQQ-NH2
# T12: BC2T A6W
# T12 construct: positional scanning library member
# T12 peptide: Ac-PDRKAWVSHWQQ-NH2
# T13: BC2T A5K
# T13 construct: positional scanning library member
# T13 peptide: Ac-PDRKKAVSHWQQ-NH2
# T14: BC2T P1N
# T14 construct: positional scanning library member
# T14 peptide: Ac-NDRKAAVSHWQQ-NH2
# T15: BC2T K4Q
# T15 construct: positional scanning library member
# T15 peptide: Ac-PDRQAAVSHWQQ-NH2
# T16: BC2T A6S
# T16 construct: positional scanning library member
# T16 peptide: Ac-PDRKASVSHWQQ-NH2
# T17: BC2T V7W
# T17 construct: positional scanning library member
# T17 peptide: Ac-PDRKAAWSHWQQ-NH2
# T18: BC2T H9D
# T18 construct: positional scanning library member
# T18 peptide: Ac-PDRKAAVSDWQQ-NH2
# T19: BC2T Q12D
# T19 construct: positional scanning library member
# T19 peptide: Ac-PDRKAAVSHWQD-NH2
# T20: BC2T H9E
# T20 construct: positional scanning library member
# T20 peptide: Ac-PDRKAAVSEWQQ-NH2
# T21: BC2T Q11E
# T21 construct: positional scanning library member
# T21 peptide: Ac-PDRKAAVSHWEQ-NH2
# T22: BC2T S8K
# T22 construct: positional scanning library member
# T22 peptide: Ac-PDRKAAVKHWQQ-NH2
# B1: BC2-NbR106E (VHH)
# VHH: QVQLVESGGGLVQPGGSLTLSCTASGFTLDHYDIGWFRQAPGKEREGVSCINNSDDDTYYADSVKGRFTIFMDNAKDTVYLQMNSLKPEDTAIYYCAEARGCKRGEYEYDFWGQGTQVTVSS
# notes: headlock mutant of BC2-Nb; immobilised on beads in this assay
# B2: BC2 nanobody (VHH)
# VHH: B1 VHH with E106R
# notes: immobilised on beads in this assay; also called BC2-Nb; BC2 nanotrap (immobilised)
# B3: BC2-NbR106S (VHH)
# VHH: B1 VHH with E106S
# notes: as for B1
# What was measured:
# Experiment in all cases: positional peptide library pulldown on immobilised Nb, LC-MS of supernatant; signal ratio to control GFP-Nb (1 = not captured, near 0 = captured)
# [1] = molecular target: T1, BC2T R3P
# Procedure, shortened: (§1)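 Unbound peptide left in supernatant after 1 h pulldown in PBS/0.01% CHAPS measured by reversed-phase LC-MS (8–30% eluent B gradient, 20 min).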
# [2] = molecular target: T2, BC2T R3N
# Procedure, shortened: as §1
# [3] = molecular target: T3, BC2T A5N
# Procedure, shortened: as §1
# [4] = molecular target: T4, BC2T D2K
# Procedure, shortened: as §1
# [5] = molecular target: T5, BC2T A5Q
# Procedure, shortened: as §1
# [6] = molecular target: T6, BC2T D2F
# Procedure, shortened: as §1
# [7] = molecular target: T7, BC2T A6F
# Procedure, shortened: as §1
# [8] = molecular target: T8, BC2T P1H
# Procedure, shortened: as §1
# [9] = molecular target: T9, BC2T K4Y
# Procedure, shortened: as §1
# [10] = molecular target: T10, BC2T V7Q
# Procedure, shortened: as §1
# [11] = molecular target: T11, BC2T A6Y
# Procedure, shortened: as §1
# [12] = molecular target: T12, BC2T A6W
# Procedure, shortened: as §1
# [13] = molecular target: T13, BC2T A5K
# Procedure, shortened: as §1
# [14] = molecular target: T14, BC2T P1N
# Procedure, shortened: as §1
# [15] = molecular target: T15, BC2T K4Q
# Procedure, shortened: as §1
# [16] = molecular target: T16, BC2T A6S
# Procedure, shortened: as §1
# [17] = molecular target: T17, BC2T V7W
# Procedure, shortened: as §1
# [18] = molecular target: T18, BC2T H9D
# Procedure, shortened: as §1
# [19] = molecular target: T19, BC2T Q12D
# Procedure, shortened: as §1
# [20] = molecular target: T20, BC2T H9E
# Procedure, shortened: as §1
# [21] = molecular target: T21, BC2T Q11E
# Procedure, shortened: as §1
# [22] = molecular target: T22, BC2T S8K
# Procedure, shortened: as §1
binder,measurement,setting,value
B1,ratio,[1],1
same,ratio,[2],0.9
same,ratio,[3],0.3
same,ratio,[4],0.1
same,ratio,[5],0.2
same,ratio,[6],0.2
same,ratio,[7],1
same,ratio,[8],0.4
same,ratio,[9],0.3
same,ratio,[10],0.4
same,ratio,[11],1
same,ratio,[12],1
same,ratio,[13],0
same,ratio,[14],0.7
same,ratio,[15],0.2
same,ratio,[16],0.6
same,ratio,[17],0.2
B2,ratio,[18],0.1
same,ratio,[19],0.6
same,ratio,[20],0.2
same,ratio,[21],0.1
B3,ratio,[22],0.9
